Substrate: CC(C)[C@H](NC(=O)[C@H](CO)NC(=O)CNC(=O)CNC(=O)[C@@H](NC(=O)[C@@H](NC(=O)[C@H](CCCNC(=N)N)NC(=O)CNC(=O)[C@@H]1CCCN1C(=O)[C@H](CO)NC(=O)[C@H](CCCCN)NC(=O)[C@@H](N)CCCCN)C(C)C)C(C)C)C(=O)N[C@@H](C)C(=O)N[C@@H](Cc1c[nH]cn1)C(=O)O
Assay: Kinetics of cleavage of synthetic peptides by t-PA (HPLC, Eadie-Hofstee analysis)
Assay type: biochemical
Details: other: hydrolysis of peptide by t-PA
Method: Concentrations of functional t-PA and u-PA were measured by active site titration with 4-methylumbelliferyl p-guanidinobenzoate (Jameson, G., et al., (1973) Biochem. J. 131, 107-117) using a Perkin-Elmer LS 50B Luminescence Fluorometer as previously described (Madison, E. L., et al., (1995) J. Biol. Chem. 270: 7558-7562). In addition, the enzymes were titrated with a standard PAI-1 preparation that had been previously titrated against a trypsin primary standard. Total enzyme concentrations were measured by ELISA.
Individual phage stocks were prepared and digested with no enzyme, t-PA, u-PA, or u-PA in the presence of 1 mM amiloride, a specific inhibitor of u-PA. Kinetic-data were obtained by incubating various concentrations of peptide with a constant enzyme concentration to achieve between 5 and 20% cleavage of the peptide in each reaction. For assays with u-PA, enzyme concentration was either 815 or 635 nM. For assays with t-PA enzyme concentration was 700 nM. […] The buffer used in these assays has been described (Madison, E. L., et al., 1995). Reactions were stopped by addition of triflouroacetic acid to 0.33% or by freezing on dry ice. Cleavage of the 13 and 14 residue peptides was monitored by reverse phase HPLC as described (Madison, E. L., et al., 1995). The 4-6 residue peptides were acylated at their amino termini and amidated at their carboxyl termini. Cleavage of the 4-6 residue peptides was monitored by hydrophilic interaction HPLC chromatography (HILIC) (Alpert, A. J. (1990) J. Chromatog. 499, 177-196.) using a polyhydroxyaspartamine column from PolyLC (Columbia, Md.). Buffer A was 50 mM triethylamine phosphate in 10% acetonitrile and buffer B was 10 mM triethylamine phosphate in 80% acetonitrile. Peptides were eluted by a gradient which was varied from 100% Buffer B to 100% Buffer A during a 13 minute interval. The percent of cleaved peptide was calculated by dividing the area under the product peaks by the total area under substrate and product peaks. […] Errors were determined as described (Taylor, J. R., 1982) An introduction to error analysis. […]

B1: t-PA (Homo sapiens) (protein)
chain: SYQVICRDEKTQMIYQQHQSWLRPVLRSNRVEYCWCNSGRAQCHSVPVKSCSEPRCFNGGTCQQALYFSDFVCQCPEGFAGKCCEIDTRATCYEDQGISYRGTWSTAESGAECTNWNSSALAQKPYSGRRPDAIRLGLGNHNYCRNPDRDSKPWCYVFKAGKYSSEFCSTPACSEGNSDCYFGNGSAYRGTHSLTESGASCLPWNSMILIGKVYTAQNPSAQALGLGKHNYCRNPDGDAKPWCHVLKNRRLTWEYCDVPSCSTCGLRQYSQPQFRIKGGLFADIASHPWQAAIFAKHRRSPGERFLCGGILISSCWILSAAHCFQERFPPHHLTVILGRTYRVVPGEEEQKFEVEKYIVHKEFDDDTYDNDIALLQLKSDSSRCAQESSVVRTVCLPPADLQLPDWTECELSGYGKHEALSPFYSERLKEAHVRLYPSSRCTSQHLLNRTVTDNMLCAGDTRSGGPQANLHDACQGDSGGPLVCLNDGRMTLVGIISWGLGCGQKDVPGVYTKVTNYLDWIRDNMRP
B1 showed a Km of 15 mM, a kcat of 0.0043 s⁻¹ and a kcat/Km of 0.29 M⁻¹ s⁻¹.
